Reference: the supplement of paper PMC10567573

B1: HSP90AB1 (parent)
chain: TLRQKAEADKNDKAVKDLVVLLFE

Variants of: B1
Assay: protein stability index of a GFP-peptide fusion (GPS, HEK-293T) (PSI 1-6); higher = more stable
Details: c terminus: a fixed tail appended
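Further: lentivirally expressed fusions sorted by FACS into six bins by GFP to DsRed ratio, PSI derived from sequencing read proportions per bin multiplied by bin number.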

Variant	protein stability index
TLRQKAEADKNDKAVKDLVVRLFE	3.31
TLRQKAEADKNDKAVKDLVVTLFE	3.5
TLRQKAEADKNDKAVKDLVVILFE	2.35
TLRQKAEADKNDKAVKDLVVWLFE	1.73
TLRQKAEADSNDKAVKDLVVLLFE	3.56
TLRQKAEADENDKAVKDLVVLLFE	2.73
TLRQKAEADNNDKAVKDLVVLLFE	2.98
TLRQKAEADWNDKAVKDLVVLLFE	2.52
TLRQKAEADGNDKAVKDLVVLLFE	2.63
TLRQKAEADDNDKAVKDLVVLLFE	3.11
TLRQKAEADANDKAVKDLVVLLFE	3.44
TLRQKAEADMNDKAVKDLVVLLFE	2.65
TLRQKAEADPNDKAVKDLVVLLFE	3.68
TPRQKAEADKNDKAVKDLVVLLFE	3.23
TDRQKAEADKNDKAVKDLVVLLFE	3.13
TERQKAEADKNDKAVKDLVVLLFE	3.01
TFRQKAEADKNDKAVKDLVVLLFE	2.65
TYRQKAEADKNDKAVKDLVVLLFE	2.64
TNRQKAEADKNDKAVKDLVVLLFE	2.79
TLRQKAEDDKNDKAVKDLVVLLFE	3.57
TLRQKAENDKNDKAVKDLVVLLFE	3.35
TLRQKAEWDKNDKAVKDLVVLLFE	3.03
TLRQKAEGDKNDKAVKDLVVLLFE	3.9
TLRQKAEQDKNDKAVKDLVVLLFE	3.24

Variant	protein stability index
TLRQKAEPDKNDKAVKDLVVLLFE	2.21
TLRQKREADKNDKAVKDLVVLLFE	2.69
TLRQKKEADKNDKAVKDLVVLLFE	2.71
TLRQKWEADKNDKAVKDLVVLLFE	3.32
TLRQKDEADKNDKAVKDLVVLLFE	3.41
TLRQKTEADKNDKAVKDLVVLLFE	2.85
TLRQKIEADKNDKAVKDLVVLLFE	3.35
TLRQKNEADKNDKAVKDLVVLLFE	2.61
TLRQKCEADKNDKAVKDLVVLLFE	2.91
TLRQKGEADKNDKAVKDLVVLLFE	2.72
TLRQKAEADKNDKAVKDLVCLLFE	3.53
TLRQKAEADKNDKAVKDLVTLLFE	3.48
TLRQKAEADKNDKAVKDLVYLLFE	2.7
TLRQKAEADKNDKAVKDLVNLLFE	4.46
TLRQKAEADKNDKAVKDLVFLLFE	2.96
TLRQKAEADKNDKAVKDLVLLLFE	3.13
TLRQKAEADKNDKAVKDLVDLLFE	5.3
TLRQKAEADKNDKAVKDLVELLFE	5.2
TLRQKAEADKNDKAVKDLVHLLFE	3.43
TLRQKAEADKNDKAVKDLVPLLFE	4.05
TLRQKAEADKNDSAVKDLVVLLFE	2.99
TLRQKAEADKNDMAVKDLVVLLFE	2.75
TLRQKAEADKNDQAVKDLVVLLFE	3.21
TLRQKAEADKNDHAVKDLVVLLFE	2.46

Variant	protein stability index
TLRQKAEADKNDFAVKDLVVLLFE	1.93
TLRQKAEADKNDIAVKDLVVLLFE	2.47
TLRQKAEADKNDYAVKDLVVLLFE	2.2
TLRQKAEADKNDVAVKDLVVLLFE	2.91
TLRQKAEADKNDAAVKDLVVLLFE	3.19
TLRQKAEADKNDWAVKDLVVLLFE	1.73
TLRQKAEADKNDEAVKDLVVLLFE	3.39
TLRQKAEADKFDKAVKDLVVLLFE	3.09
TLRQKAEADKQDKAVKDLVVLLFE	2.62
TLRQKAEADKSDKAVKDLVVLLFE	2.95
TLRQKAEADKADKAVKDLVVLLFE	3
TLRQKAEADKGDKAVKDLVVLLFE	3.13
TLRQKAEADKNDKAVKILVVLLFE	2.35
TLRQKAEADKNDKAVKSLVVLLFE	2.58
TLRQKAEADKNDKAVKELVVLLFE	2.96
TLRQKAEADKNDKAVKYLVVLLFE	1.91
TLRQKAEADKNDKAVKTLVVLLFE	1.95
TLRQKAEADKNDKAVKALVVLLFE	1.99
TLRQKAEADKNDKAVKPLVVLLFE	2.87
TLRQKAEADKNDKAWKDLVVLLFE	2.64
TLRQKAEADKNDKATKDLVVLLFE	3.11
TLRQKAEADKNDKAGKDLVVLLFE	3.48
TLRQKAEADKNDKAYKDLVVLLFE	3.43
TLRQKAEADKNDKAPKDLVVLLFE	2.54

Variant	protein stability index
TLRQKAEADKNDKAQKDLVVLLFE	2.86
TLRQKAEADKNDKARKDLVVLLFE	2.49
YLRQKAEADKNDKAVKDLVVLLFE	2.63
KLRQKAEADKNDKAVKDLVVLLFE	2.49
WLRQKAEADKNDKAVKDLVVLLFE	2.51
HLRQKAEADKNDKAVKDLVVLLFE	3.09
GLRQKAEADKNDKAVKDLVVLLFE	3.53
MLRQKAEADKNDKAVKDLVVLLFE	3.02
SLRQKAEADKNDKAVKDLVVLLFE	4.38
RLRQKAEADKNDKAVKDLVVLLFE	2.47
QLRQKAEADKNDKAVKDLVVLLFE	3.54
TLRQKAEADKNDKAVKDLVVLLFP	1.71
TLRQKAEADKNDKAVKDLVVLLFI	2.54
TLRQKAEADKNDKAVKDLVVLLFV	2.01
TLRQKAEADKNDKAVKDLVVLLFS	2.19
TLRQKAEADKNDKAVKDLVVLLFD	2.83
TLRQKAEADKNDKAVKDLVVLLFH	2.79
TLRQKAEADKNDKAVKDLVVLLFW	1.97
TLRQKAEADKNDKAVKDLVVLLFR	2.04
TLRQKAEADKNDKAVKDLVVLLFF	1.83
TLRQKAEADKNDKAVKDLVVLLFT	2.14
TLRQKAEADKNDKAVKDLVVLLFL	2.54
